These results are taken from patent US20250127783.

The target of the data set is HA-Cdh1 (UniProt Q9UM11).
Sequence of HA-Cdh1 (Q9UM11 whole entry): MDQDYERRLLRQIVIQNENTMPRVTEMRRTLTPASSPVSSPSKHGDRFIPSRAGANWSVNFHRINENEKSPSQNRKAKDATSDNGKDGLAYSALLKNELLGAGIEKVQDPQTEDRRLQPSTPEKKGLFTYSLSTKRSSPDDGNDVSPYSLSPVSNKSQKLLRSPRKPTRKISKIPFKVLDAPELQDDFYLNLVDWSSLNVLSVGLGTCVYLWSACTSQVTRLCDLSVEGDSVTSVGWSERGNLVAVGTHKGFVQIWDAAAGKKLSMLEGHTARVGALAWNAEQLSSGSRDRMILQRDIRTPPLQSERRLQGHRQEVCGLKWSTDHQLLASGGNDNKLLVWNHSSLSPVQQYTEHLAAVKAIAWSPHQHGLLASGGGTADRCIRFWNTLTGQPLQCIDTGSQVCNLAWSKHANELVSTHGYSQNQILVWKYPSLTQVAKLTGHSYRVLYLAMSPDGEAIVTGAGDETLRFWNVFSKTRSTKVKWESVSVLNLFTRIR

“recombinant human cyclin D1+CDK4 proteins (Abcam ab55695)”: the “in vitro kinase assay (thiophosphate ester immunoblot)” value is reported as “CDK4 specifically phosphorylates Cdh1 at S163”.
